Experimental data: patent publication US20180334496A1 (KODIAK SCIENCES, published 2018)
Where a chain is given by its changes, count along the chain named.

B1: KCD077 (antibody, V domains shown)
VH: EVQLQQSGAELVRPGALVKLSCKASGFNIKDYYMHWVKQRPEQGLEWIGWIDPENGHTIYDPRFQGKATITADTSSNTAYLQLSSLTSEDTAVYYCSRGLLGFAYWGQGTLVTVSA
VL: DIVMTQSQKFMSTSVGDRVSVTCKASQNVGTNVAWYQQKPGQSPKALIYTASYRYSGVPDRFTGSGSGTDFTLTISNVQSEDLAEYFCQQYNSYPHMYTFGGGTKLEIK
B2: KCD014 (antibody, V domains shown)
VH: EVKLVESGGGLVQPGGSLKLSCAASGFTFSSYIMSWVRQTPEKRLEWVAYITNGGGNTYYPDTIKGRFTISRDNAKNTLYLQMSSLKSEDTAMYYCARHGTGYAMDYWGQGTSVTVSS
VL: EIVLTQSPTTMAASPGEKITITCSASSSISSNYLHWYQQKPGFSPKLLIYRTSNLASGVPARFSGSGSGTSYSLTIGTMEAEDVATYYCQQGSSIPLTFGAGTKLELK
B3: KCD114 (antibody, V domains shown)
VH: EVQLQQSGPELVKPGASVKISCKASGYSFTAYYMNWVKQSPEKSLEWIGDINPSTGGTTYNQNFKAKATLTVDKSSSTAYMHLKSLTSEDSAVYYCATTYYSGNSYVGFAYWGQGTLVTVSA
VL: DIVMTQSHKFMSTSVGDRVSITCKASQDVSTAVAWYQQKPGQSPKLLIFWASTRHTGVPDRFTGSGSGTDYTLTISSVQAEDLALYYCQQHYSTPWTFGGGTKLEIK
B4: KCD030 (antibody, V domains shown)
VH: QVQLQQSGAELAKPGASVKMSCKASGYTFTNYWMHWVKQRPGQGLEWIGYINPSIGYTEYNQKFKDKATLTADKSSSTAYMQLSSLTSEDSAVFYCATFIYYAMDYWGQGTSVTVSS
VL: DIQMNQSPSSLSASLGDTITITCHASQNINVWLSWYQQKPGNIPKLLIYKASNLHTGVPSRFSGSGSGTGFTLTISSLQPEDIATYYCQQGQSYPYTFGGGTKLEIK
B5: KCD212 (antibody, V domains shown)
VH: EVHLVESGGDLVKPGGSLKLSCAASGFTFSRYGMSWVRQTPDKRLEWVATISSAGSYTYYPDSVKGRFTISRDNAKNTLFLQMSSLKSEDTAMYYCARPLNYYGTSSFDYWGQGTTLTVSS
VL: QIVLTQSPAIMSASPGEKVTMTCRASSSVSSTYLHWYQQKPGSSPKLWIYSTSNLASGVPPRFSGSGSGTSYSLTISSVEAEDAATYYCQQYDSSPNTFGAGTKLELK
B6: KCD133 (antibody, V domains shown)
VH: EVQLVESGGGLLQPKGSLKLSCAASGFTFNTYAMNWVRQAPGKGLEWVARIRSKSSNYATYYADSVKDRFTISRDDSQSMFYLEMNNLKTEDTAMYYCVRDRGYYYVMDYWGQGTSVTVSS
VL: DIVLTQSPASLAVSLGQRATISCRASESVEYYGTSLMQWYQQKPGQPPKLLINAASNVESGVPARFSGSGSGTDFSLNIHPVEEDDIAMYFCQQSRKVPWTFGGGTKLEIK
B7: KCD011 (antibody, V domains shown)
VH: EVKLVESGGGLVQPGGSLKLSCAASGFTFSSNTMSWVRQTPEKRLEWVAYITNGGGSTYYPDTVKGRFTISRDNARNTLYLQMSSLKSEDTAMYYCARHDYYTMDYWGQGTSVTVSS
VL: DIQMTQSPSSLSASLGGKVTITCKASQDINKYIAWYQHKPGKGPRLLIHYTSTLQPGIPSRFSGSGSGRDYSFSISNLEPEDIATYYCLQYDNLLYTFGGGTKLEIK
B8: KCD058 (antibody, V domains shown)
VH: EVKLVESGGDLVQPGGSLKLSCAASGFTFSRYIMSWVRLTPEKRLEWVAFITNGGGNTYHPDTVKGRFTISRDNANNTLYLQMSSLKSEDTAIYYCARHDYYALDYWGQGTSVTVSS
VL: B7 VL
B9: KCD063 (antibody, V domains shown)
VH: B2 VH with T28I, N57S, I64V, F68L, A97V, G100A, T101H, G102Y
VL: B7 VL with A34T
B10: KCD057 (antibody, V domains shown)
VH: B8 VH with D10G, R31N, L39Q, F50Y, N57A, H60Y, R67Q, N76K, Y101F, Y106F
VL: B7 VL with Q90K
B11: KCD056 (antibody, V domains shown)
VH: B7 VH with L20V, S31T, N32Y, V64E, R76K, A97V, T103A
VL: B7 VL with K103T
B12: KCD004 (antibody, V domains shown)
VH: EVQLQQSGAELVRPGSSVKMSCKTSGKTFTSHGINWVKQRPGQGLEWIGYIYIGNGYNEYNEKFKGKATLTSDTSSSTAYMQLSSLTFEDSAIYFCVRKAYGNYGFDDWGQGTTLTVSS
VL: DIQMTQSPTSLSASLGESVSLTCRASQEISGYLNWLQQKPDGSIKRLIYAASTLDSGVPKRFSGSRSGSDYSLTISSLESEDFADYYCLQYANYPFTFGSGTKLEVK
notes: also called OG2063
B13: KCD126 (antibody, V domains shown)
VH: B12 VH
VL: B12 VL with Y32N
B14: KCD205 (antibody, V domains shown)
VH: B12 VH with K27N, F88S
VL: B12 VL with T9S, S18R, N34S, S43T, R66S, E81D, N93S, V106I
B15: KCD125 (antibody, V domains shown)
VH: B12 VH with K27N, H32Y, N55T, N58T, F88S, D108Y
VL: B12 VL with T9S, S18R, N34S, S43T, N93S, V106I
B16: KCD019 (antibody, V domains shown)
VH: QVQLQQSGAELARPGASVKMSCKASGYTFATYTIHWVKQRPGQGLEWIGYLNLRNDYTHYNQKFRDKAALTADKSSSTAYMQLSSLTSEDSAVYNCAFRLGNDRQGWYFDVWGAGTTVTVSS
VL: DIVMTQAHRFMSTSVGDRVIISCKASQDVGTAVAWYQQTPGQSPKILIYWTSTRHTGVPDRFTGSRSGTDFTLTISNVQSEDLADYFCQQYTTYPLTFGGGTKLEIK
B17: KCD066 (antibody, V domains shown)
VH: QVQLQQSAAELARPGASVKMSCKASGYTFTDYTMHWVKQRPGQGLEWIGYINPSGGYTDYNQKFKDKTALTADKSSSTAYMQLSSLTSEDSAVYYCARRRDYWFAYWGQGTLVTVSA
VL: DIVMSQSPSSLAVSVGEKVTMSCKSSQSLLYSGNQKNYLAWYQQKPGQSPKLLIYWASTRESGVPDRFTGSGSGTDFTLTISSVKAEDLAVYYCHQYYSYLTFGAGTKLELK

Columns and labels:
Test in all cases: SPR MX96
[1] = biological target: T1, human complement factor D purified from serum (human, UniProt P00746 26-253)
T1 construct: serum-purified (CompTech); also called hCFD-Comptech; CFD
T1 sequence (P00746 26-253): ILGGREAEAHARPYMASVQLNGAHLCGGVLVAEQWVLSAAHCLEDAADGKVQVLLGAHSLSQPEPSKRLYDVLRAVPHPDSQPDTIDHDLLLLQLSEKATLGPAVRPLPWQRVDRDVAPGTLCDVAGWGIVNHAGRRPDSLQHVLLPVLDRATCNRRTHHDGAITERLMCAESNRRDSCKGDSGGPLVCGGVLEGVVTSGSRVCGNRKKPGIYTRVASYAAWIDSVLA

[2] = biological target: T2, recombinant human CFD mutant 1 (R157A, R207A), His-tagged (human, UniProt P00746 26-253)
T2 construct: positions are linear positions in the mature protein; also called rhCFD-mut1-His; Mut1
T2 sequence (P00746 26-253 R182A/R232A limits assumed): as the sequence (P00746 26-253) above, with R157A, R207A counted along it

[3] = biological target: T3, recombinant cynomolgus CFD, His-tagged (cynomolgus)
T3 construct: also called rcyCFD-His; recombinant Cyno-CFD

[4] = biological target: T4, recombinant human CFD, His-tagged (human, UniProt P00746 26-253)
T4 construct: also called rhCFD-His
T4 sequence (P00746 26-253 limits assumed): as the sequence (P00746 26-253) above

Binder	Kd [1]	Kd [2]	Kd [3]	Kd [4]
B1	17 nM	13 nM	14 nM	–
B2	22 nM	–	–	20 nM
B3	8.1 nM	8.4 nM	8.4 nM	3.8 nM
B4	4.2 nM	1.3 nM	–	3.8 nM
B5	0.47 nM	0.2 nM	3.8 nM	0.21 nM
B6	12 nM	–	84 nM	14 nM
B7	77 nM	110 nM	38 nM	59 nM
B8	9.9 nM	7.6 nM	11 nM	9.4 nM
B9	33 nM	–	24 nM	–
B10	2.7 nM	2.5 nM	3.1 nM	2.7 nM
B11	60 nM	84 nM	31 nM	52 nM
B12	0.35 nM	0.14 nM	0.92 nM	0.24 nM
B13	0.34 nM	0.18 nM	0.93 nM	0.29 nM
B14	3 nM	1.8 nM	3.3 nM	1.9 nM
B15	3.8 nM	2.7 nM	4.1 nM	2.5 nM
B16	7.2 nM	180 nM	47 nM	61 nM
B17	2.9 nM	1.2 nM	4 nM	1.9 nM
